Source: patent publication US20200399389A1 (PHANES THERAPEUTICS, published 2020)
Changes are numbered by the printed parent chain.

Tests used:
[1] = target: T1, human CD73 expressed on the surface of cells (human, UniProt P21589 27-549); assay: cell-based or functional assay
T1 sequence: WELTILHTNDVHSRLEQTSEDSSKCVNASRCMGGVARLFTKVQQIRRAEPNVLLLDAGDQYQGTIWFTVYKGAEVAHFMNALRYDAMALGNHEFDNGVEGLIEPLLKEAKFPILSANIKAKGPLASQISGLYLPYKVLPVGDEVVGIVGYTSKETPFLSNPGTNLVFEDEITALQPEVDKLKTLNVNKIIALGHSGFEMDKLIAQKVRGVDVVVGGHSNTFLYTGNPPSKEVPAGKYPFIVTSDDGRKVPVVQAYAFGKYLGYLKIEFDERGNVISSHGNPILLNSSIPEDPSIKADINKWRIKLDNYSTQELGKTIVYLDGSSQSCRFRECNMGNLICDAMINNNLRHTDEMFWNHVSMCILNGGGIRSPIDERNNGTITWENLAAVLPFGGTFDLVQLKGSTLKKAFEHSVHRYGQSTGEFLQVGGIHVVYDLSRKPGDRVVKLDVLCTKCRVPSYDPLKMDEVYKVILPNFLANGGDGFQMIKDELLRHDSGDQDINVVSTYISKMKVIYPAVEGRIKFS

[2] = target: T2, HIS-tagged human CD73 (huCD73-HIS) (human, UniProt P21589 27-547); assay: cell-based or functional assay
T2 sequence: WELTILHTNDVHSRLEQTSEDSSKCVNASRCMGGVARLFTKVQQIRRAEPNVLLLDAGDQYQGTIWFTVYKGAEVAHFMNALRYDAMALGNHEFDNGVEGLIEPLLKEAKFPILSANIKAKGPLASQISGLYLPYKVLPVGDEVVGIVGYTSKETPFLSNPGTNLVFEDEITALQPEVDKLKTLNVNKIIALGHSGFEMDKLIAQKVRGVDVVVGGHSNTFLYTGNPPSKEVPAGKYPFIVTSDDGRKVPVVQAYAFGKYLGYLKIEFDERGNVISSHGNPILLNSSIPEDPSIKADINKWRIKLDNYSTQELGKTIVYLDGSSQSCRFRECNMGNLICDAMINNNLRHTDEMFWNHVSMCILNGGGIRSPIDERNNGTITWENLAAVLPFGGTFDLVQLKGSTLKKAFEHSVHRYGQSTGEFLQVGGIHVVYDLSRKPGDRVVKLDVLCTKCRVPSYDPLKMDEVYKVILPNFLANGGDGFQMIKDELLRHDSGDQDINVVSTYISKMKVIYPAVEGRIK

B1: 60A9-H3L3 (antibody, V domains shown)
VH: EVQLVESGGGLVQPGQSLKLSCKASGYAFSSYWMNWVRQAPGKGLEWIGQIYPGDGDTYYNPSVKGRATLSADKSKNTAYLQLNNLRAEDTAVYYCAREAIYYGNYVFTYWGQGTLVTVSS
VL: DIQMTQSPSLLSASLGDRVTITCKSSQSLLNSSNQKNYLAWYQQKPGQSPKLLVYFASTRDSGVPDRFSGSGSGTDFTLTISSLEPEDFATYYCQQHYSTPLTFGGGTKLEIK
[1]
  IC50 (nM), cell-based CD73 activity assay (A375 cells): 65.7 nM
[2]
  IC50 (nM), huCD73 enzymatic assay in solution: 2.09 nM

B2: 60A9-H5L4 (antibody, V domains shown)
VH: B1 VH with R38K, A40R, N61S, P62G, S63K, V64F
VL: B1 VL with Q3V, T22S, Y93F, G106A
[1]
  IC50 (nM), cell-based CD73 activity assay (A375 cells): 30.1 nM

B3: 39G8-H1L3 (antibody, V domains shown)
VH: QVQLVQSGAEVKKPGASVKVSCKASGYTFTSYWMHWVRQAPGQGLEWIGEIDPSGGYTNYAQKFQGRSTLTVDKSISTAYMELSRLRSDDTAVYYCARNYYYGSSGTMDYWGQGTLVTVSS
VL: DIVMTQSPDSLAVSLGERATMSCKSSQSLLNSSNQKNYLAWYQQKPGQPPKLLVYFASTRESGVPDRFSGSGSGTDFTLTISSLQAEDVAVYFCQQHYSTPYTFGGGTKVEIK
[1]
  IC50 (nM), cell-based CD73 activity assay (A375 cells): 49.6 nM

B4: 39G8-H2L3 (antibody, V domains shown)
VH: B3 VH with K74T
VL: B3 VL
[1]
  IC50 (nM), cell-based CD73 activity assay (A375 cells): 66.3 nM

B5: 39G8-H3L3 (antibody, V domains shown)
VH: B3 VH with A61N
VL: B3 VL
[1]
  IC50 (nM), cell-based CD73 activity assay (A375 cells): 56.1 nM
